B1: human TGFβ3 (ligand, UniProt P10600 301-412, looked up)
chain: ALDTNYCFRNLEENCCVRPLYIDFRQDLGWKWVHEPKGYYANFCSGPCPYLRSADTTHSTVLGLYNTLNPEASASPCCVPQDLEPLTILYYVGRTPKVEQLSNMVVKSCKCS
B2: G4_TGFβRII (wt) (Fc fusion)
chain: IPPHVQKSVNNDMIVTDNNGAVKFPQLCKFCDVRFSTCDNQKSCMSNCSITSICEKPQEVCVAVWRKNDENITLETVCHDPKLPYHDFILEDAASPKCIMKEKKKPGETFFMCSCSSDECNDNIIFSEEYNTSNPD
notes: TGFβRII extracellular domain linked to an IgG4 Fc region; Fc is placed first here only because of the name G4_TGFβRII; also called wild-type G4_TGFβRII protein; not shown: Fc region of IgG4 (and any linker)

Columns and labels:
G4_TGFβRII (wt) = target: B2; experiment: ELISA, plate coated with 0.5 ug/ml human TGFβ3, 1 h incubation, HRP secondary antibody, OD450
Procedure: (§1) A 96-well EIA microplate was coated with 0.5 ug/ml human TGFβ (TGFβ1, TGFβ2, or TGFβ3) overnight at 4° C. […] The unbound proteins were removed by washing the wells with 1×PBST (1×PBS containing 0.05% Tween 20) three times. A HRP-conjugated secondary antibody (1:5000) was added to the wells at room temperature (RT) for 1 hour. After the incubation, excess secondary antibodies were removed by washing the wells with 1×PBST three times. Finally, 3,3′,5,5′-Tetramethylbenzidine (TMB) was added for color development. The reaction was stopped and HRP activity was measured using a spectrophotometer at 450 nm.

human TGFβ1 [1] = target: T1, human TGFβ1 (human, UniProt P01137 279-390); experiment: ELISA (on rate), plate coated with 0.5 ug/ml human TGFβ1, 5 min incubation, OD450
Procedure: as §1, with “For on-rate binding ability, a 96-well” for “A 96-well”, “0.5 μg/ml” for “0.5 ug/ml”, “TGFβ (TGFβ1)” for “TGFβ (TGFβ1, TGFβ2, or TGFβ3)”, “containing 0.1%” for “containing 0.05%”, “at RT” for “at room temperature (RT)”

human TGFβ3 [2] = target: B1; experiment: ELISA, plate coated with 0.5 ug/ml human TGFβ3, 1 h incubation, HRP secondary antibody, OD450
Procedure: as §1

human TGFβ1 [3] = target: T1, human TGFβ1; experiment: ELISA, plate coated with 0.5 ug/ml human TGFβ1, 1 h incubation, HRP secondary antibody, OD450
Procedure: as §1

human TGFβ1 [4] = target: T1, human TGFβ1; experiment: cell-based or functional assay
human TGFβ3 [5] = target: B1; experiment: cell-based or functional assay
human TGFβ1 [6] = target: T1, human TGFβ1; experiment: ELISA (off rate), plate coated with 0.5 ug/ml human TGFβ1, 1 h incubation, then 2 h wash on a shaker, OD450
Procedure: A HRP-conjugated secondary antibody (1:5000) was added to the wells at RT for 1 hour. After the incubation, excess secondary antibodies were removed by washing the wells with 1×PBST three times. Finally, 3,3′,5,5′-Tetramethylbenzidine (TMB) was added for color development. The reaction was stopped and HRP activity was measured using a spectrophotometer at 450 nm.

T1 sequence (P01137 279-390 limits assumed): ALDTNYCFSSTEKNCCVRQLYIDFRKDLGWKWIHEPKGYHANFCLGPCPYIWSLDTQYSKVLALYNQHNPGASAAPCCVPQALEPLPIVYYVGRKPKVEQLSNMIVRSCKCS

Binder	binding result (G4_TGFβRII (wt))	EC50 (human TGFβ1 [1])	EC50 (read off the curve) (human TGFβ3 [2])	EC50 (read off the curve) (human TGFβ1 [3])	IC50 (read off the curve) (human TGFβ1 [4])	IC50 (read off the curve) (human TGFβ3 [5])	EC50 (read off the curve) (human TGFβ1 [6])
B1	binds	–	–	–	–	–	–
B2	–	10.8 nM	~2 nM	~6 nM	~1 nM	~3 nM	~4 nM

— patent publication US20240228584A1 (FBD BIOLOGICS, published 2024)
